Assays:
[1] = molecular target: T1, partial ACTH peptide (positions 1 to 24 of ACTH) (Homo sapiens, UniProt P01189); experiment: Turbidity (OD550) measurement and Hill plot analysis of albumin reagents mixed with partial ACTH peptide; assay type: binding
T1 construct: consisting of the amino acids of positions 1 to 24 of ACTH
Protocol: BSA (Sigma-Aldrich) was dissolved in Milli-Q® water (Millipore) to prepare a BSA solution (1.0 w/v %). The BSA solution was divided into two and one was designated as a non-denatured BSA solution and the other was autoclaved at 110° C. for 15 minutes to obtain a heat-denatured BSA solution.
A partial ACTH peptide (Peptide Institute, Inc.) consisting of the amino acids of positions 1 to 24 of ACTH was used as the basic peptide of interest. The peptide was dissolved in ultrapure water to prepare a sample containing the basic peptide of interest (1.0 mg/ml).
The heat-denatured BSA solution prepared in the above (1) (50 μl) was mixed with the sample prepared in (2) followed by addition of ultrapure water to prepare a total volume of 250 μl of a mixed solution (final concentration of heat-denatured BSA: 0.2 w/v %). In this preparation, the sample was mixed so as to obtain a final concentration of the partial ACTH peptide in the mixed solution of 0 to 150 μM. A comparative mixed solution was also prepared in the similar manner except that the non-denatured BSA solution was used instead of the heat-denatured BSA solution.
The thus-prepared mixed solutions were measured for absorbance at the wavelength of 550 nm (OD550) in a spectrophotometer UV-2500PC (Shimadzu Corporation). The obtained results were subjected to Hill plot analysis with KaleidaGraph (HULINKS, Inc.) to calculate the values of Kd and the Hill coefficient of heat-denatured BSA and non-denatured BSA.
BSA (Sigma-Aldrich) was dissolved in Milli-Q® water (Millipore) to prepare a BSA solution (1.0 w/v %). The BSA solution was divided into five aliquots among which one was designated as a non-denatured BSA solution (heat denaturation period: 0 min) and the rest of four were heated in an autoclave at 110° C. for 5, 15, 60 and 120 min, respectively, to obtain heat-denatured BSA solutions.
The Kd value and Hill coefficient of BSA at respective heat denaturation periods were calculated. […]
The Kd value and Hill coefficient were calculated for the mixed solutions. […]

partial ACTH peptide [2] = molecular target: T2, partial ACTH peptide (Homo sapiens, UniProt P01189); experiment: Detection capacity (turbidity, OD550) at various final concentrations of reagent for detection; design: key: “Y” denotes turbidity appearing; “N” does the absence of turbidity
T2 construct: consisting of amino acids of positions 1 to 24 of ACTH; purchased Biologica Co
Protocol: BSA (Sigma-Aldrich) was dissolved in ultrapure water to prepare a BSA solution (5.0 w/v %). The BSA solution was heated in an autoclave at 115° C. for 15 minutes to obtain a heat-denatured BSA solution.
A partial ACTH peptide consisting of amino acids of positions 1 to 24 of ACTH (Biologica Co.) was used as the basic peptide of interest. The peptide was dissolved in ultrapure water to prepare a sample containing the basic peptide of interest (1.0 mg/ml).
The heat-denatured BSA solution prepared in (1) was mixed with 30 μl or 60 μl of the sample prepared in (2) followed by addition of ultrapure water to prepare a total volume of 250 μl of mixed solutions. In the preparation, the reagent for detection (solution of heat-denatured BSA) was mixed with the respective samples so as to obtain a final concentration of the reagent for detection in the mixed solution of 0.1 to 5%.
The thus-prepared mixed solutions were measured for values of absorbance at the wavelength of 550 nm (OD550) with a spectrophotometer UV-2500PC (Shimadzu Corporation). The results obtained are summarized in Table 6, where “Y” denotes turbidity appearing and “N” does the absence of turbidity.

partial ACTH peptide [3] = molecular target: T2, partial ACTH peptide; experiment: OD550 Hill plot analysis in serum-based solution versus control solution; assay type: binding
Protocol: The peptide was dissolved in ultrapure water and mixed with serum collected from a healthy volunteer in USA (person) (SUNFCO) to prepare the serum-based sample containing the basic peptide of interest. The serum-based samples were prepared so as to adjust the final concentrations of the partial ACTH peptide and serum as shown in (3) below.
The denatured BSA solution prepared in the above (1) (50 μl) was mixed with the sample prepared in (2) followed by addition of ultrapure water to prepare a total volume of 250 μl of mixed solution containing serum (hereinafter referred to as “serum-based solution”). In the preparation, the serum-based sample was mixed so as to adjust a final concentration of the partial ACTH peptide of to 0 to 80 μM and adjust a final concentration of serum of to an equivalent to 100-fold dilution in the mixed solution. For a control, a mixed solution was also prepared without serum (hereinafter referred to as “control solution”).
The thus-prepared mixed solutions were measured for absorbance at the wavelength of 550 nm (OD550) with a spectrophotometer UV-2500PC (Shimadzu Corporation).
OD=(peptide concentration)^n/[(peptide concentration)^n+[Kd×(1+CHSA/Ki)]^n]

partial ACTH peptide [4] = molecular target: T2, partial ACTH peptide; experiment: OD550 detection of basic peptide concentrated by OFFGEL fractionation from serum-containing specimen; details: Heat-denatured BSA: Yes; concentrated partial ACTH peptide fraction after OFFGEL fractionation, MES-HCl buffer pH 5.0
Protocol: A partial ACTH peptide consisting of amino acids of positions 1 to 24 of ACTH (Biologica Co.) was used as the basic peptide of interest. The peptide was dissolved in ultrapure water and mixed with serum of a healthy USA subject (SUNFCO) to prepare an actual serum sample containing the basic peptide of interest. The sample was prepared so as to obtain the concentrations of the partial ACTH peptide and serum as shown in (3) below.
(3) Preparation of sample solution containing concentrated basic peptide of interest. A glycerol solution (Agilent technologies; 6 ml) and an OFFGEL Buffer solution (Agilent technologies; 600 μl) were mixed followed by addition of ultrapure water to prepare a total volume of 50 ml of peptide buffer solution (×1.25), the pH of which is 3-10. This solution was mixed with the sample of the above (2) to prepare a peptide buffer solution (×1) with the concentration of 20 μM of the partial ACTH peptide and the concentration equivalent to 1000-fold dilution of serum. This solution was fractionated with using a High Resolution IPG gel for fraction whose pH is pH 3-10 on the OFFGEL fractionator (Agilent Technologies). […]
The thus-prepared mixed solutions were measured for absorbance at the wavelength of 550 nm (OD550) in a spectrophotometer UV-2500PC (Shimadzu Corporation).

[5] = Example 1, final BSA 0.2 w/v %, peptide 0 to 150 μM, OD550 Hill plot
[6] = Nucleic acid: Yes (salmon sperm DNA, final 10 μM)
[7] = heat denaturation period 5 min at 110° C.
[8] = heat denaturation period 15 min at 110° C.
[9] = heat denaturation period 60 min at 110° C.
[10] = heat denaturation period 120 min at 110° C.
[11] = Control solution (without serum)
[12] = Serum solution (serum equivalent to 100-fold dilution)

T1 sequence (P01189 138-161): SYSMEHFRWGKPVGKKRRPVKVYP

Heat-denatured BSA: BSA solution (1.0 w/v %) in Milli-Q water autoclaved at 110° C. for 15 minutes; reagent for detection
Hill coefficient n [1, 5]: 8 | Kd [1, 5]: 30 µM | Hill coefficient n ([1]; Nucleic acid: No): 11 | Kd ([1]; Nucleic acid: No): 40 µM | Hill coefficient n [1, 6]: 8 | Kd [1, 6]: 30 µM | change in OD550 with increasing partial ACTH peptide concentration ([1]; albumin reagent mixed with partial ACTH peptide): increased in a concentration dependent manner | Hill coefficient n [1, 7]: 5 | Kd [1, 7]: 33 µM | Hill coefficient n [1, 8]: 8 | Kd [1, 8]: 30 µM | Hill coefficient n [1, 9]: 6 | Kd [1, 9]: 28 µM | Hill coefficient n [1, 10]: 4 | Kd [1, 10]: 33 µM | Detection capacity (in the case of 30 μM peptide) (partial ACTH peptide [2]; final conc. of reagent 0.1 %): Y | Detection capacity (in the case of 60 μM peptide) (partial ACTH peptide [2]; final conc. of reagent 0.1 %): Y | Detection capacity (in the case of 30 μM peptide) (partial ACTH peptide [2]; final conc. of reagent 0.2 %): Y | Detection capacity (in the case of 60 μM peptide) (partial ACTH peptide [2]; final conc. of reagent 0.2 %): Y | Detection capacity (in the case of 30 μM peptide) (partial ACTH peptide [2]; final conc. of reagent 0.4 %): Y | Detection capacity (in the case of 60 μM peptide) (partial ACTH peptide [2]; final conc. of reagent 0.4 %): Y | Detection capacity (in the case of 30 μM peptide) (partial ACTH peptide [2]; final conc. of reagent 0.5 %): Y | Detection capacity (in the case of 60 μM peptide) (partial ACTH peptide [2]; final conc. of reagent 0.5 %): Y | Detection capacity (in the case of 30 μM peptide) (partial ACTH peptide [2]; final conc. of reagent 0.7 %): Y | Detection capacity (in the case of 60 μM peptide) (partial ACTH peptide [2]; final conc. of reagent 0.7 %): Y | Detection capacity (in the case of 30 μM peptide) (partial ACTH peptide [2]; final conc. of reagent 1.0 %): Y | Detection capacity (in the case of 60 μM peptide) (partial ACTH peptide [2]; final conc. of reagent 1.0 %): Y | Detection capacity (in the case of 30 μM peptide) (partial ACTH peptide [2]; final conc. of reagent 5.0 %): Y | Detection capacity (in the case of 60 μM peptide) (partial ACTH peptide [2]; final conc. of reagent 5.0 %): Y | Hill coefficient n (partial ACTH peptide [3]; [11]): 4 | Kd (partial ACTH peptide [3]; [11]): 25 µM | Hill coefficient n (partial ACTH peptide [3]; [12]): 3.4 | Kd (partial ACTH peptide [3]; [12]): 29 µM | OD550 (partial ACTH peptide [4]): 0.03
